Assays:
[1] = target: WT SARS-CoV-2 spike protein, plate-coated (MSD V-Plex) (SARS-CoV-2) (UniProt P0DTC2); test: MSD competition vs labelled ACE2
[2] = target: full length wild type SARS-CoV-2 spike glycoprotein on pseudotyped lentivirus (SARS-CoV-2) (UniProt P0DTC2); test: cell-based or functional assay
[3] = target: SARS-CoV-2 spike RBD-His (R&D Systems, cat #10500-CV) (SARS-CoV-2) (UniProt P0DTC2); test: SPR
[4] = target: SARS-CoV-2 spike RBD-His (R&D Systems, cat #10500-CV) (SARS-CoV-2) (UniProt P0DTC2); test: SPR, 1:1 model

| Substance | IC50 [1] | Pseudovirus Neutralization (IC50, nM) [2] | Pseudovirus neutralization IC50 [2] | Kd [3] | Kd [4] |
| --- | --- | --- | --- | --- | --- |
| Bamlanivimab + Etesevimab | 70 pM | – | – | – | – |
| REGEN-COV | 70 pM | 0.09 nM | 90 pM | – | – |
| REGN10933 (Casirivimab) (antibody) | – | – | – | 70.8 pM | 70.8 pM |
| REGN10987 (Imdevimab) (antibody) | – | – | – | 86.9 pM | 86.9 pM |
| Sotrovimab (antibody) | – | 0.11 nM | – | – | – |
